Where a chain is given by its changes, count along the chain named. Numbers in names are those of the source. Entries after “also recorded” stand apart in the source; their conditions may differ.

The values that follow come from patent US7700101B2, “Reagents and method for modulating Dkk-mediated interactions” (Wyeth, priority 2001, dated 2010).

Assay [1] relates to Wnt pathway (TCF-luciferase reporter). The assay can be described thus: TCF-luciferase assay of LRP5 variants in U2OS cells. The assay is classed as cell-based, human. Particulars: for susceptibility to modulation by Dkk / activation of TCF-luciferase reporter construct: U2OS cells; for susceptibility to modulation by Dkk: in the presence of Dkk1 and Wnt1; for activation of TCF-luciferase reporter construct: in the presence of Wnt. The text has this: Site-directed mutants of LRP5 were generated in the full-length human LRP5 cDNA using the QuikChange XL-Site-Directed Mutagenesis Kit (catalog #200516, Stratagene, La Jolla, Calif.) following the manufacturers protocol. The mutant sequences were introduced using complementary synthetic oligonucleotides:
All constructs were sequence verified to ensure that only the engineered modification was present in the gene. Once verified, each variant was functionally evaluated in the TCF-luciferase assay in U2OS cells (essentially as described in Example 7. Other functional evaluations could also be performed, such as the Xenopus embryo assay (essentially as described in Example 6), or other assays to evaluate Wnt signaling, Dkk modulation, or anabolic bone effect. Binding of these mutants to Dkk, LRP-interacting proteins, Dkk-interacting proteins, or peptide aptamers to any of the preceding could also be investigated in a variety of ways such as in a two-hybrid system (such as in yeast as described in this application), or other methods.
U2OS human osteosarcoma cells were also utilized. U2OS cells (ATCC) were seeded into 96-well plates at 30,000 cells per well in 200 ul of the growth media (McCoy's 5A) containing 10% (v/v) heat-inactivated FBS, 1X penicillin streptomycin, and 1×Glutamax-1, and incubated overnight at 37° C. The following day, the media was replaced with OptiMEM (Invitroge) and cells were transfected using […] (as described by the manufacturer, Invitrogen) with. 0.005 μg/well of LRP5, HBM, LRP6 or contoI plasmid DNA (empty vector pcDNA3.1) and either Wnt1 (0.0025 ug/well) or Wnt3a (0.0025 ug/well) plasmid DNA. In addition, the 16x-(AS) TCF-TK-firefly-luciferase (Ramesh Bhat, WHRI, Wyeth) and control TK-renilla luciferase (Promega Corp.) were co-transfected at 0.3 ug/well and 0.06 ug/well respectively in all experiments. […] In other experiments, cells were co-transfected with 0.005 μg/well of LRP5, 0.0025 ug/well of Wnt1 or Wnt3 a (using […] of a control pcDNA3.1) with LRP5-interacting aptamers (0.05 ug/well). Cells were cultured for an additional 18-20 hours at 37° C. Culture medium was removed. Cells were then lysed with 100 μl/well of 1X Passive Lysis Buffer (PLB) of Dual Luciferase Reagent kit (DLR-kit-Promega Corp.) 20 μl of the lysates were combined with LARII reagent of DLR-kit and assayed for TCF-firefly luciferase signal in Top Count (Packard) instrument. After measuring the Firefly readings, 100 μl of the “Stop and Glo” reagent of DLR kit that contains a quencher and a substrate for renilla luciferase was added into each well. Immediately the renilla luciferase reading was measured using the Top Count (Packard) Instrument. The ratios of the TCF-firefly luciferase to control renilla readings were calculated for each well and the mean ratio of triplicate or more wells was expressed in all data.
In general terms: A reporter such as luciferase makes a cellular process visible.

The target of the next assay is T1, LRP5 (Homo sapiens, UniProt O75197).
T1 construct: Site-directed mutants of LRP5 were generated in the full-length human LRP5 cDNA; expressed in transfected cells; host or cells: HOB-03-CE6 osteoblastic cells; U2OS osteosarcoma cells; HEK293
The assay can be described thus: TCF-luciferase assay in HOB-03-CE6 cells, LRP5. Format: cell-based. To be noted: Wnt3a, FIG. 15. The procedure: (§1) HOB-03-CE6 osteoblastic cells developed by Wyeth Ayerst (Philadelphia, Pa.) were seeded into 24-well plates at 150,000 cells per well in 1 ml of the growth media (D-MEM/F12 phenol red-free) containing 10% (v/v) heat-inactivated FBS, 1×penicillin streptomycin, and 1X Glutamax-1, and incubated overnight at 34° C. The following day, the cells were transfected using Lipofectamine 2000® (as described by the manufacturer, Invitrogen) in OptiMEM (Invitrogen) with 0.35 μg/well of LRP5, HBM, or control plasmid DNA (empty vector pcDNA3.1) and either Wnt1 or Wnt3 a plasmid DNA. Similar experiments were performed with LRP6 plasmid DNA (0.35 μg/well) or a control pEDdpc4 empty vector. […] All wells were transfected with 0.025 μg/well of CMV beta-galactosidase plasmid DNA and 0.35 μg/well 16X TCF(ASyluciferase reporter DNA (developed by Ramesh Bhat, Wyeth-Ayerst (Philadelphia, Pa.)). After 4 hours of incubation, the cells were rinsed and 1 ml of fresh growth media was added to each well. The cells were cultured overnight at 34° C., followed by a wash and a change of media. Cells were cultured for an additional 18-24 hours at 37° C. Cells were then lysed with 50 μl/well of 1X lysis buffer. The extracts were assayed for beta-galactosidase activity (Galacto Reaction Buffer Diluent & Light Emission Accelerator, Tropix) using 5 μl extract+50 μl beta-galactosidase diluent and luciferase activity (Luciferase Assay Reagent, Promega) using 20 μl extract.

Another assay concerns the target T2, HBM (Homo sapiens, UniProt O75197, G171V).
T2 construct: Full length Zmax/LRP5 and HBM ORF cDNA; expressed in transfected cells; host or cells: HOB-03-CE6 osteoblastic cells; U2OS osteosarcoma cells; HEK293
Kind of assay: TCF-luciferase assay in HOB-03-CE6 cells, HBM. Particulars: Wnt3a, FIG. 15. Format: cell-based. The procedure: as §1, with “DNA.” for “DNA. Similar experiments were performed with LRP6 plasmid DNA (0.35 μg/well) or a control pEDdpc4 empty vector.”

Assay [2] addresses T3, LRP6 (Homo sapiens, UniProt O75581). To be noted: cited from earlier work.
Target sequence in this assay (O75581 20-1613, species assumed): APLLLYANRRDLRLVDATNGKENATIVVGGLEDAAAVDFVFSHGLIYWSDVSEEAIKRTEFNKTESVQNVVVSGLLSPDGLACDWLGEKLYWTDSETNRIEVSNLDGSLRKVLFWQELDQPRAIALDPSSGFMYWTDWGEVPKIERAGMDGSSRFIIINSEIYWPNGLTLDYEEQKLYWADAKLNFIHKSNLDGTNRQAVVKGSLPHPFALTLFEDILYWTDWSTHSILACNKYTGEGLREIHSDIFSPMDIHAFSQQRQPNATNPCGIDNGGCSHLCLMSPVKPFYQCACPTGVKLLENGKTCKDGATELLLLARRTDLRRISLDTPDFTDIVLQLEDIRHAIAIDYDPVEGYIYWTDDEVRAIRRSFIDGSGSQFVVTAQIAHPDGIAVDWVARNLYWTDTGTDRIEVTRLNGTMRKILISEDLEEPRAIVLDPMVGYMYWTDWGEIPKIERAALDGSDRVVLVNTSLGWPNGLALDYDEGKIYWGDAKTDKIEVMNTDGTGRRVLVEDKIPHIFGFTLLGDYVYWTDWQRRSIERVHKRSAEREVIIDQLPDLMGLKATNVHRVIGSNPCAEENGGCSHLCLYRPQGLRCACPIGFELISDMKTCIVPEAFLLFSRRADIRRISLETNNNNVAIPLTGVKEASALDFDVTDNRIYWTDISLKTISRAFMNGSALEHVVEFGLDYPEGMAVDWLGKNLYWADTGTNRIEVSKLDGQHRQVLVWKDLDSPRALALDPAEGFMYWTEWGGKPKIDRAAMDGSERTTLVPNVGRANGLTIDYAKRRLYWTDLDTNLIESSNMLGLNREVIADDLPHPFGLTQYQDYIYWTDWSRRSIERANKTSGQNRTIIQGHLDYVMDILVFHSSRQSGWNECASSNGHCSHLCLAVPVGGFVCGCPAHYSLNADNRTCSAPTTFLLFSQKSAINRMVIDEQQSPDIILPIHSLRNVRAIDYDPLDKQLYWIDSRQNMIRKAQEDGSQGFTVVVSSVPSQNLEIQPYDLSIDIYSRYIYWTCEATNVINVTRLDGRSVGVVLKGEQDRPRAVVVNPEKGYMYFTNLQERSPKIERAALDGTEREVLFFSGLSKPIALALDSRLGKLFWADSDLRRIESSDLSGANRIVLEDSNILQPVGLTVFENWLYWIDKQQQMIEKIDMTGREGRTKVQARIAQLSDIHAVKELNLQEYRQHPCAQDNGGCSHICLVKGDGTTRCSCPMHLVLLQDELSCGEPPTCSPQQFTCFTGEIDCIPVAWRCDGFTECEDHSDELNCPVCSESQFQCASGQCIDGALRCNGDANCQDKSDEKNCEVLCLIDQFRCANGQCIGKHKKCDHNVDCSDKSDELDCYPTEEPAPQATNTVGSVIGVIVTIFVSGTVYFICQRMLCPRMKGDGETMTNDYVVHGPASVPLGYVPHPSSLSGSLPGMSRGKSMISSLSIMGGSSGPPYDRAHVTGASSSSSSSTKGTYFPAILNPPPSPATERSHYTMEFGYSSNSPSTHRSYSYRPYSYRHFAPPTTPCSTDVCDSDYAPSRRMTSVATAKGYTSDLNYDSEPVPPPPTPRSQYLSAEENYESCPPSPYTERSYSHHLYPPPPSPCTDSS
Assay [3] concerns the target T3, LRP6. The assay can be described thus: TCF-luciferase assay in HOB-03-CE6 cells, LRP6. Set-up: Full length LRP6 was isolated from the pED6dpc4 vector; expressed in transfected cells; host or cells: HOB-03-CE6 osteoblastic cells; U2OS osteosarcoma cells; HEK293. Format: cell-based.
Target sequence in this assay (O75581 20-1613): as the sequence (O75581 20-1613, species assumed) above
The next assay deals with endogenous LRP5/6. Kind of assay: Cell-based TCF reporter high-throughput assay, endogenous LRP5/6. More on the design: species or system human. Particulars: U2OS cells. From the text:
To develop a high throughput assay, the TCF-luciferase assay described in Example 7 was modified utilizing low level expression of endogenous LRP5/6 in U2OS and HEK293 cells. […] Using U2OS (human osteosarcoma) and HEK293 (ATCC) cells, the TCF-luciferase and tk-Renilla reporter element constructs were co-transfected along with Wnt3a/1 and Dkk.

The test system of another assay is LRP5 LBD. The assay can be described thus: Yeast-2 hybrid interaction trap LRP5 LBD-LexA / Gal4AD-Dkk. The assay is classed as binding. To be noted: FIG. 18. From the text:
Small molecule inhibitors (or partial inhibitors) of the Dkk-LRP interaction may be an excellent osteogenic therapeutic. One way to investigate this important protein-protein interaction is using Y2H techniques substantially as described above and as is well known in the art. […] This interaction is quantitated using a reporter element known in the art, e.g., LacZ or luciferase, which is only activated when bait and prey interact. The Y2H assay is used to screen for compounds which modulate the LRP-Dkk interaction. Such a modulation would be visualized by a reduction in reporter element activation signifying a weaker or disrupted interaction, or by an enhancement of the reporter element activation signifying a stronger interaction. Thus, the Y2H assay can be used as a high-throughput screening technique to identify compounds which disrupt or enhance Dkk interaction with LRP5/LRP6/HBM, which may serve as potential therapeutics.
For example, the Interaction Trap methodology can be used as follows. […] With the LRP5LBD-LexA bait and the Gal4AD-Dkk prey, over a 20-fold activation of a lacZ reporter (under the control of a single LexA operator) was detected over the background. […] As a result, small molecules may be identified that modulate this interaction between LRP and Dkk.

The subject of another assay is canonical Wnt signaling. Particulars: Semenov et al.; cited from earlier work.

Chain of LRP5 LBD (as listed by the source): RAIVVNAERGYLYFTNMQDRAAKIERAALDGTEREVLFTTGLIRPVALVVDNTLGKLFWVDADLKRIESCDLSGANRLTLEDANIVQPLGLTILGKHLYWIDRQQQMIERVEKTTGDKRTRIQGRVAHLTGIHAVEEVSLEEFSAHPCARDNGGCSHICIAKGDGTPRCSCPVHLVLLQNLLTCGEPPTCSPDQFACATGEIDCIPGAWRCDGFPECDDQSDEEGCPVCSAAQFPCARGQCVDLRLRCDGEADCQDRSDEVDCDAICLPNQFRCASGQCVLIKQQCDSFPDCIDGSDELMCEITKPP
T2 sequence (O75197 32-1615 G171V): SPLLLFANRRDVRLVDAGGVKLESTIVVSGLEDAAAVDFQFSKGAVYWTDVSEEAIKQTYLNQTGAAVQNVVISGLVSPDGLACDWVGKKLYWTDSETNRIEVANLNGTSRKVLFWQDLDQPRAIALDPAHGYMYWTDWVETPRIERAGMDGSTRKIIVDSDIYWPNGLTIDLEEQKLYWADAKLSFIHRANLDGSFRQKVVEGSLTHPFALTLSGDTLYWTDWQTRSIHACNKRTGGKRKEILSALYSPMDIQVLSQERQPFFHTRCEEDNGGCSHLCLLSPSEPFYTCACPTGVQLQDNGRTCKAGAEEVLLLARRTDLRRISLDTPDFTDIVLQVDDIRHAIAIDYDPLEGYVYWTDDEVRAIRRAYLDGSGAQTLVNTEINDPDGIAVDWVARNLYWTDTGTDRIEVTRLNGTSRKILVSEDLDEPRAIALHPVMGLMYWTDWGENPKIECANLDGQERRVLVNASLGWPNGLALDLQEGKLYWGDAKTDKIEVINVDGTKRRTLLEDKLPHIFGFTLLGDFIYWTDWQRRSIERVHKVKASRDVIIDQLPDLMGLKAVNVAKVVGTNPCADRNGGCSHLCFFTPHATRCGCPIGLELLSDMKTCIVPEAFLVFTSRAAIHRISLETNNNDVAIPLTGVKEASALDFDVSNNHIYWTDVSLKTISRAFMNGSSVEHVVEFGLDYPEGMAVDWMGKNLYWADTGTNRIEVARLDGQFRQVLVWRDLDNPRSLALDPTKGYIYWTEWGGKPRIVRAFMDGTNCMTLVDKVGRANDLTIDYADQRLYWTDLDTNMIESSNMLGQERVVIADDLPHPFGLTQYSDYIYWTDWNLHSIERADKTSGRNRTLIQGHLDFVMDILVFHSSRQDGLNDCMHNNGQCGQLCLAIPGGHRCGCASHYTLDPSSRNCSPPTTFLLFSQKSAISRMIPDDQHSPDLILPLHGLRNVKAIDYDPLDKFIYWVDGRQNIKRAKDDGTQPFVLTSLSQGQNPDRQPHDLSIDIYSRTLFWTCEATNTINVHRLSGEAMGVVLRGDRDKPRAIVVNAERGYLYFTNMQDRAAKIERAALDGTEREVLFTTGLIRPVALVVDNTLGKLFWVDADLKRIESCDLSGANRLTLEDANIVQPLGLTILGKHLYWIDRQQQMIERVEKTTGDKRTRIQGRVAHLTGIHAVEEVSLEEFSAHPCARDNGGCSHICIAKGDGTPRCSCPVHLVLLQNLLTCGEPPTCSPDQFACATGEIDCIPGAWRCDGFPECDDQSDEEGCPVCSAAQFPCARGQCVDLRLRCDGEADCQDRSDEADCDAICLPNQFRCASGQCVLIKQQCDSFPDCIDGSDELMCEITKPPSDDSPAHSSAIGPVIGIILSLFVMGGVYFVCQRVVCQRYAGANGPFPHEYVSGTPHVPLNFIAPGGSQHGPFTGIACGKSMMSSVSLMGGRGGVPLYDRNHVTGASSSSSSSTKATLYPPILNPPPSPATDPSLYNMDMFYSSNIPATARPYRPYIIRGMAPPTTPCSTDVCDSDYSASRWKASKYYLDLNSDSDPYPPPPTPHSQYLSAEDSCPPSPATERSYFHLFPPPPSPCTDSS
T1 sequence (O75197 32-1615): as the sequence (O75197 32-1615 G171V) above, with V140G counted along it

Turning to “G171K: site-directed variant of human LRP5, introduces a charged side-chain”, the “HBM effect / HBM activity” value in assay [1] is given as “demonstrated HBM activity”.
Consider “G171F: site-directed variant of human LRP5 in propeller 1, introduces a ringed side-chain”, for which, in assay [1], the “HBM effect / HBM activity” value is recorded as “results in an HBM effect; also recorded: demonstrated HBM activity”, the “susceptibility to modulation by Dkk” value is on record as “less susceptible than LRP5” and the “activation of TCF-luciferase reporter construct” value is reported as “greater activation of the Wnt pathway than LRP5; also recorded: able to activate the TCF-luciferase reporter construct”.
Take “A214V: site-directed variant of human LRP5, position equivalent to 171 in blade 5”: the “HBM effect / HBM activity” value in assay [1] was “demonstrated HBM activity”.
Take “M282V: site-directed variant of human LRP5, accessible interior position in blade 1”: in assay [1], the “HBM effect / HBM activity” value is “results in an HBM-effect; also recorded: demonstrated HBM activity”, the “susceptibility to modulation by Dkk” value is “less susceptible than LRP5” and the “activation of TCF-luciferase reporter construct” value is given as “activation of the Wnt pathway; also recorded: able to activate the TCF-luciferase reporter construct”.
Take “G171Q: site-directed variant of human LRP5, introduces the propeller 4 residue”: the “HBM effect / HBM activity” value in assay [1] was “demonstrated HBM activity”.

B1: Dkk-2: human Dickkopf-2, Dkk family member, full length cDNA (protein, UniProt Q9UBU2 1-259, looked up)
chain: MAALMRSKDSSCCLLLLAAVLMVESSQIGSSRAKLNSIKSSLGGETPGQAANRSAGMYQGLAFGGSKKGKNLGQAYPCSSDKECEVGRYCHSPHQGSSACMVCRRKKKRCHRDGMCCPSTRCNNGICIPVTESILTPHIPALDGTRHRDRNHGHYSNHDLGWQNLGRPHTKMSHIKGHEGDPCLRSSDCIEGFCCARHFWTKICKPVLHQGEVCTKQRKKGSHGLEIFQRCDCAKGLSCKVWKDATYSSKARLHVCQKI
modifications: full-length
notes: human Dickkopf-2, Dkk family member, full length cDNA
One may read the Kd as the concentration at which binding is half-saturated. Take B1: in the assay with LRP5, the “LRP5/Wnt3a mediated TCF-luciferase activity” value was “able to antagonize the TCF-luciferase activity”. Moreover, in the assay with HBM, the “HBM/Wnt3a mediated TCF-luciferase activity” value is “able to antagonize the TCF-luciferase activity”. Further, the Kd with LRP6 [2] (Mao et al., classical biochemical ligand-receptor studies) was 0.73 nM. Besides, the “LRP6/Wnt1 mediated TCF-luciferase activity” value in the assay with LRP6 [3] (Wnt1, FIG. 14) is reported as “had no effect”. Moreover, the “LRP6/Wnt3a mediated TCF-luciferase activity” value with LRP6 [3] (Wnt3a, FIG. 15) is on record as “able to antagonize LRP6/Wnt3a mediated TCF-luciferase activity”.

B2: Dkk-1-AP: Dkk-1 modified with alkaline phosphatase (protein)
chain: TLNSVLNSNAIKNLPPPLGGAAGHPGSAVSAAPGILYPGGNKYQTIDNYQPYPCAEDEECGTDEYCASPTRGGDAGVQICLACRKRRKRCMRHAMCCPGNYCKNGICVSSDQNHFRGEIEETITESFGNDHSTLDGYSRRTTLSSKMYHTKGQEGSVCLRSSDCASGLCCARHFWSKICKPVLKEGQVCTKHRRKGSHGLEIFQRCYCGEGLSCRIQKDHHQASNSSRLHTCQRH
modifications: left off: large carriers
notes: Dkk-1 modified with alkaline phosphatase
Consider B2, for which the “modulation of TCF signal without Wnt DNA transfection” value in the assay with endogenous LRP5/6 (no Wnt3a/Wnt1 transfection, FIG. 21) is recorded as “can be modulated”.

B3: Dkk-1 mutant (C220A): Dkk-1 mutant where cysteine 220 was changed to alanine (protein)
chain: B2 chain with C189A
With B3, the “interaction with LRP5 in yeast” value with LRP5 LBD is recorded as “interaction was reduced”; in the assay with LRP5 LBD (listed as mutant Dkk-1 (C220A)), “unable to bind to LRP5”. The “repression of Wnt3a-mediated TCF reporter signaling” value in the assay with endogenous LRP5/6 (Wnt3a, FIG. 19) is “lack of TCF-reporter inhibition”. The LRP6 binding result in the assay with LRP6 [2] (Semenov et al.) is “abolished LRP6 binding”. For the same molecule, in the assay on canonical Wnt signaling, the “repression of Wnt signaling” value is on record as “unable to repress Wnt signaling”.
